Measurements published in the supplement of paper PMC12042874.
± gives the uncertainty stated by the source.

assay: amyloid nucleation score (Sup35N fusion, yeast selection) (log enrichment); library NNK2; higher = more nucleation; inactive = no reads after selection
Outline: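 Using DiMSum, nucleation scores were taken as the log enrichment of output over input reads, centred on the mode score of non-aggregating sequences. The input and output reads came from Illumina sequencing of plasmid inserts, with sequences under 100 input reads excluded. The yeast were psi-negative, expressed Sup35N fused to peptides of 20 random codons, were induced with 100 μM copper sulfate for 24 hours, and were grown 7 days at 30°C on medium lacking adenine and uracil.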

Row | Substance | amyloid nucleation score
1 | YAFQGHGNFETGSYPEVLAA | 0.098 ± 0.49
2 | MPCLFVF | 2.28 ± 0.17
3 | CMIIKGCTVWVVRP | 9.469 ± 0.055
4 | RVVRLAFNPRPSDAWILYR | 0.325 ± 0.34
5 | WPYRMMR | 0.554 ± 0.74
6 | VISEGRHKSFSL | -0.105 ± 1.1
7 | IAFGAGCLMWSR | 8.335 ± 0.063
8 | IYTNSISACDDVVGKNRVFA | -1.3 ± 1.1
9 | YNRLMVGRPRLQHLSL | -1.51 ± 0.39
10 | SRFPGCSVSTGRHRTKVSSR | 0.177 ± 0.43
11 | SIGFPSMSMRSWILFTSLYR | 0.004 ± 0.8
12 | QCSIVWR | 6.61 ± 0.076
13 | LRTQSILYLRRMG | -0.164 ± 0.32
14 | ISLAINLCALIDATRDWSPC | 6.12 ± 0.05
15 | MMGWFPRKLES | -0.125 ± 0.41
16 | SQGCVICGFYLLWHPNRHCQ | 9.447 ± 0.051
17 | ISFYVCVIML | 7.433 ± 0.065
18 | SFRRSPELSQEFTRGYDSYR | -0.276 ± 0.76
19 | LHLFAKSATSLVIVFAQDLI | -0.455 ± 0.42
20 | SMMKLDEYI | -1.17 ± 0.78
21 | IQCTCTPDYPVLSLSVMVNF | 8.361 ± 0.078
22 | FYCWTTSDMFVRTSSIESP | 1.09 ± 0.59

Row | Substance | amyloid nucleation score
23 | TDCRFIIVYMVIGSFLYTRV | -0.747 ± 1.1
24 | TLLVKSMGGSLET | 4.11 ± 0.044
25 | MASSPSVSIIKLFFGVEGLS | -0.681 ± 1
26 | QVGKQADFRVAWLRVIHVF | 0.292 ± 0.56
27 | LLVRFVLVATRRTLSTV | -0.029 ± 1.1
28 | RFTESYSL | -0.935 ± 0.48
29 | FFLLPLVRYELLSNVDAVPG | 0.101 ± 0.76
30 | RGVFAMLTVSYGNS | 5.483 ± 0.043
31 | TMGYEFMQILLDLRNLSCSY | 3.64 ± 0.097
32 | SLPIWVRSRVEGLQERISWL | 0.364 ± 0.5
33 | MDNHVLKFYRNDYKE | 0.191 ± 0.65
34 | LSGVGFLDFRPLN | 0.734 ± 0.81
35 | IMKYAHFNLK | 0.788 ± 0.51
36 | VLAVSLIYALTP | inactive
37 | LYVVIIPSEAIHVTKSSHGI | inactive
38 | KVYINHGFGNFEVCSRWVFE | -0.055 ± 1.1
39 | CVINKKNYDSFGFSVFTFYK | 3.19 ± 0.074
40 | RKVFLRLCLLVWLNG | -0.292 ± 0.3
41 | EYIYTIGYGL | inactive
42 | FVSAHRYWCHMTLSAVMGLH | 3.04 ± 0.12
43 | LCYPCRACPGTKNALADRLG | 3.56 ± 0.087
44 | SYGMRTEWTVCIAIRLHASN | 1.31 ± 0.52

Row | Substance | amyloid nucleation score
45 | WGFTLWKLWRV | 0.676 ± 0.15
46 | YTFGTNWVCW | 3.6 ± 0.062
47 | SDHFKWV | -1.05 ± 1
48 | LVDRPGFSVNVD | -0.191 ± 0.35
49 | VIPYISYLDIGTLVLLAFID | -0.373 ± 1
50 | KWLTAHAAYLWSETEVRMVV | 0.673 ± 0.27
51 | LVLSGGRV | 0.184 ± 0.42
52 | LYKSSQKKPQTLNDFQIAMW | 0.193 ± 0.65
53 | YMYILAVLSVSSLIVNYDLK | inactive
54 | CYRNNWTMWVVSQRYHRNGK | -0.289 ± 0.22
55 | NYNLRDHSDVRVRCSLALSE | inactive
56 | SGERRTGCPEAAS | 0.075 ± 0.34
57 | DSDHIYNRERQVIFGG | -0.607 ± 0.5
58 | FSRYNVCYFRVAKGNARLPF | -0.541 ± 0.76
59 | AIRRYIVKAPLLCES | 1.75 ± 0.47
60 | FWSTTDILVGRTSHTGTVCV | 0.118 ± 0.26
61 | TLTNHWLRSLCITSKGTLSC | inactive
62 | LDDVNMWFHIGNGRGGGELW | 0.092 ± 1.1
63 | RLRKFESLLICDRISIIVRY | 0.621 ± 0.56
64 | LRCFRACQTRRAFEVLLLEF | -0.152 ± 1
65 | TVAWTSRLFSLAGLLHFDR | 4.82 ± 0.062
66 | IMYVMGVVFNTMWVSA | -1.11 ± 0.62

Row | Substance | amyloid nucleation score
67 | QRDDVISRCVYHYFKVVPGA | -0.183 ± 0.55
68 | CQAYSSIRFEVL | inactive
69 | AVRTLDNMGLYAWISAKVCR | -0.184 ± 0.79
70 | MMFNYVFASLGFKRNVHLEC | inactive
71 | FQYENNVDNG | -1.75 ± 0.62
72 | TFSVQAVNLFSIWVLSGPGD | 8.02 ± 0.034
73 | MKIYARIMSFLWATVKCVGY | inactive
74 | IYGLCERTFEA | 0.977 ± 0.14
75 | FIRYVCHNVWDICYHLEMLL | inactive
76 | HVKRD | 3.23 ± 0.16
77 | REFDRNFTPYPSQQELPIWW | 0.827 ± 0.39
78 | WSLDSYSMTAVF | -0.467 ± 0.39
79 | KITMDPGLVRIHNFGQTSLV | 0.408 ± 0.62
80 | NIYIWVSTMFLLKSEQSSSN | 6.038 ± 0.058
81 | TNKKVVRYPSPLPERSYGMR | 0.012 ± 0.74
82 | KGYGIHFCFRCMDSRCGVS | 0.97 ± 0.28
83 | PCNTVLASPRYHVGGIYNLK | -0.727 ± 0.78
84 | SWCIMALRTF | 0.249 ± 0.65
85 | VICLTIYRIDECLVCLLYVA | -0.405 ± 0.33
86 | MMVAGLFLGAFFLISTKGVK | 4.43 ± 0.064
